Laboratory results taken from patent US20200291105A1 (published 2020).
Numbering of substitutions follows the chain as printed. Read-outs that look alike come from different tables or passages of the source. Values belong to the binder of their own block, whether it stands above or below them.

Key:
[1] = biological target: T1, mouse IL-25 (mouse, UniProt Q8VHH8 17-169); test: SPR
T1 chain: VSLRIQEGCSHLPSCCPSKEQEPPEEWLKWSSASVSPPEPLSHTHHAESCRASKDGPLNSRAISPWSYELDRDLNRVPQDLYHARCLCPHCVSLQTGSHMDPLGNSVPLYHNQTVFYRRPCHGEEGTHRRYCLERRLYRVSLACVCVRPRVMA

[2] = biological target: hABM125.9; test: SPR
[3] = biological target: hABM125.10; test: SPR
[4] = biological target: T1, mouse IL-25
[5] = biological target: T2, recombinant human IL-25 (R&D Systems) (human, UniProt Q9H293 33-177)
T2 chain: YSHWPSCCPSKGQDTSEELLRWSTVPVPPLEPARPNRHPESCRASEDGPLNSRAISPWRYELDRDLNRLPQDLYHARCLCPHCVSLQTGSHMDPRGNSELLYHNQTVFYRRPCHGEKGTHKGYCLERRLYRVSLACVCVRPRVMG

Kd [2]: 0.733 nM | Kd [3]: 1.06 nM
B2: mouse IL-25 (NS0) (ligand)
chain: T1 chain

Kd [5]: 0.004 nM
B4: ABM 109 (antibody, V domains shown)
VH: EVKVVESGADLMKPGASVKISCKATGYTFSSYWIEWVKQRPGHGLEWIGQILPGIGSTNYNEKFKGKATFTADTSSNTAYMQLSSLTSEDSAVYYCARGYGNYGDYWGQGTTVTVSS
VL: DIVLTQSPASLAVSLGQRATISCRASESVDSYGNSFMHWYQQKPGQPPKLLIYRASNLESGIPARFSGSGSRTDFTLTINPVEADDVATYYCQQSNEDPLTFGAGTKLELKR

Further lines, the binder ahead of its results:

B1: ABM125 (antibody, V domains shown)
VH: QVTLKVSGPGILQPSQTLSLTCSFSGFSLNTSGMGVGWIRQPSGKGLEWLAHIWWDDVKRYNPALKSRLTISKDTSGSQVFLKIASVDTADTATYYCARTLPHFFDYWGQGTTLTVSS
VL: DIQMTQSPAIMSASPGEKVTISCSASSSVSYMYWYQQKSGSSPKPWIYRTSNLASGVPARFSGSGSGTSYSLTISSMEAEDAATYYCKQYHSYPPTWTFGGGTKLEIKR
Kd [1]: 0.0073 nM

B3: ABM109.2 (antibody, V domains shown)
VH: QVQLVQSGAEVKKPGASVKVSCKASGYTFSSYWIEWVRQAPGQGLEWIGQILPGIGSTNYNEKFKGRVTITADTSTSTVYMELSSLRSEDTAVYYCARGYGNYGDYWGQGTTVTVSS
VL: B4 VL with L15P, S22T, I62V, R72G, D85Q, V87T, T89N
Kd [4]: 0.028 nM
